For orientation: Kd means a measure of binding affinity in units of concentration.

Where two headings read alike, the source gives them in different places. Ends that are not written are not given here. fatty chain = not defined here

For assay [1], the target named is Glucagon-like peptide-1 receptor extracellular domain. The experiment in a line: SPR; Biacore 8K, according to the user's manual; who was immobilised and the conditions are not stated. Background: Surface plasmon resonance follows binding to a sensor surface in real time, without labels.
The target is the same in assay [2]. The assay is described as above. The source holds these as a separate data set.
For a further assay, the target named is Human GLP-1R (human) (UniProt P43220).
Chain of Human GLP-1R (human) (P43220 24-463): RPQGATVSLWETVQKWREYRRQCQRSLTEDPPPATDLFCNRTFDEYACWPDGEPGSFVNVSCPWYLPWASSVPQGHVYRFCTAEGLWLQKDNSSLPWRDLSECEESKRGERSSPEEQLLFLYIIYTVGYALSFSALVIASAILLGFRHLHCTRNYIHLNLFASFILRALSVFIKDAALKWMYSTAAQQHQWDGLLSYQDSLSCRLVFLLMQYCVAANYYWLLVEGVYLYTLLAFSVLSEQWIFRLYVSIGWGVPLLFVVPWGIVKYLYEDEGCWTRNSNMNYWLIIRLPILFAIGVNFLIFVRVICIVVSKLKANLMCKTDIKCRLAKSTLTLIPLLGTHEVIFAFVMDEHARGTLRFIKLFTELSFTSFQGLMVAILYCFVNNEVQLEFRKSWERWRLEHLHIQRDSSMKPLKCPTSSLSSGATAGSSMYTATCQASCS
The next assay has as its target Mouse GLP-1R (mouse) (UniProt O35659).

Chain of Mouse GLP-1R (mouse) (O35659 22-463): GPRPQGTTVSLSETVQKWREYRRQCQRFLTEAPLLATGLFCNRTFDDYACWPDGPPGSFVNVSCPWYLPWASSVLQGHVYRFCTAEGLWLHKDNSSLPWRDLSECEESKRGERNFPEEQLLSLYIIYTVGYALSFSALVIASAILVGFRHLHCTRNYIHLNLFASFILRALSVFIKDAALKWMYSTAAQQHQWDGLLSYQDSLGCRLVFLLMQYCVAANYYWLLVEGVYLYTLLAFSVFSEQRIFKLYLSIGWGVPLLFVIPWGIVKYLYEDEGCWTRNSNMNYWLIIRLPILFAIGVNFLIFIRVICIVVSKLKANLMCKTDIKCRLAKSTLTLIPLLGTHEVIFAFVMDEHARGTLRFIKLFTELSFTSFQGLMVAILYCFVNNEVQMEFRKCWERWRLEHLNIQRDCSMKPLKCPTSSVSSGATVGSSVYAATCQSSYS

As for FFYSSPSAYLEKGGPSSGAPPPS [PEP16], in assay [1], the Kd was 23 nM. For the same molecule, in assay [2], the dissociation constant Kd turned out to be 25 nM. Moreover, in the assay with Human GLP-1R (human), the EC50 (nM), Human GLP-1R activation, in vitro cell assay stood at 0.111 nM and the Emax (%), Human GLP-1R activation, in vitro cell assay is 92%. In the assay with Mouse GLP-1R (mouse), the EC50 (nM), Mouse GLP-1R activation, in vitro cell assay came to 0.101 nM and the Emax (%), Mouse GLP-1R activation, in vitro cell assay was determined as 93%.
In the case of FFYSSPSAYLK(fatty chain)TGGPSSGAPPPS (reading uncertain; also: fatty chain not given here) [PEP19], the dissociation constant Kd in assay [1] amounted to 91 nM. Besides, in the assay with Human GLP-1R (human), the EC50 (nM), Human GLP-1R activation, in vitro cell assay stood at 0.152 nM and the Emax (%), Human GLP-1R activation, in vitro cell assay was found to be 89%. Moreover, in the assay with Mouse GLP-1R (mouse), the EC50 (nM), Mouse GLP-1R activation, in vitro cell assay turned out to be 0.212 nM and the Emax (%), Mouse GLP-1R activation, in vitro cell assay turned out to be 83%.
KQYSSPTAWLVGGPSSGAPPPS [PEP09]: the Kd in assay [1] is 253 nM.
As for FFYSSPSAYLKTGGPSSGAPPPS [PEP15], in assay [1], the equilibrium dissociation constant (Kd) was determined as 33 nM. In the assay with Human GLP-1R (human), this molecule returned an EC50 (nM), Human GLP-1R activation, in vitro cell assay of 0.451 nM and an Emax (%), Human GLP-1R activation, in vitro cell assay of 78%. In the assay with Mouse GLP-1R (mouse), the EC50 (nM), Mouse GLP-1R activation, in vitro cell assay stood at 0.457 nM and the Emax (%), Mouse GLP-1R activation, in vitro cell assay is 73%.
In the same order, the values of FFYSSPSAK(fatty chain)LETGGPSSGAPPPS (reading uncertain; also: fatty chain not given here) [PEP17] are 158 nM, 0.412 nM, 79%, 0.678 nM and 68%.
In the same order, the values of FFYSSPSAYKETGGPSSGAPPPS [PEP14] are 53 nM, 0.051 nM, 105%, 0.034 nM and 150%.
Consider FFYSSPSAKLETGGPSSGAPPPS [PEP13], for which the dissociation constant Kd in assay [1] came out at 98 nM. In the assay with Human GLP-1R (human), this molecule registered an EC50 (nM), Human GLP-1R activation, in vitro cell assay of 0.064 nM and an Emax (%), Human GLP-1R activation, in vitro cell assay of 96%. In the assay with Mouse GLP-1R (mouse), this molecule yielded an EC50 (nM), Mouse GLP-1R activation, in vitro cell assay of 0.051 nM and an Emax (%), Mouse GLP-1R activation, in vitro cell assay of 110%.
In the same order, the values of FFYSSPSAYK(fatty chain)ETGGPSSGAPPPS (reading uncertain; also: fatty chain not given here) [PEP18] are 62 nM, 0.391 nM, 78%, 0.351 nM and 78%.
In the same order, the values of FFYSSPSAYLEK(fatty chain)GGPSSGAPPPS (reading uncertain; also: fatty chain not given here) [PEP20] are 25 nM, 0.062 nM, 98%, 0.051 nM and 99%.

The values above are taken from publication PMC6412877, “Novel Site-Specific Fatty Chain-Modified GLP-1 Receptor Agonist with Potent Antidiabetic Effects” (Molecules, 2019).
